The target of assay [1] is T1, rhCD6-Fc (human, UniProt P30203 25-398, limits assumed).
T1 construct: also called rhCD6-Fc chimera; antigen rhCD6-Fc; not shown: Fc part
T1 sequence (looked up): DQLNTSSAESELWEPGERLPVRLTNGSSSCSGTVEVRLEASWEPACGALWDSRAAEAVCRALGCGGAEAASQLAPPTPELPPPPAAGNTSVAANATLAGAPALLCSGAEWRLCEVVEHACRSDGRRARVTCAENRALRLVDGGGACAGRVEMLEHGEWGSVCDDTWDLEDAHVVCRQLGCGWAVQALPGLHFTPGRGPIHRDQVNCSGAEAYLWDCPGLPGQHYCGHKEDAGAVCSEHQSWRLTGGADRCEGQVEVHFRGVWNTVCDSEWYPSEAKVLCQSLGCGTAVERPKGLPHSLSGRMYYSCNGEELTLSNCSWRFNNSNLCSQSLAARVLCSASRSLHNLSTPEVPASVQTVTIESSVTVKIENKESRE
As to the kind of experiment: SPR (BIAcore T200, 25 C), rhCD6-Fc immobilised on CM5, IgG injected 0.11-27 nM, 1:1 fit; column head misprinted 'Kd (1/Ms)'. On the procedure:
(§1) IgG antibodies were injected through flow cells at a flow rate of 30 μl/min with the concentration ranging from 0.11-27 nM (three-fold serial dilution). Association time was 700 s followed by 3600 s dissociation. At the end of each cycle, sensor surface was regenerated with 10 mM Glycine-HCl, pH 2.0 (100 μl/min, 12 s for 3 times). Responses of reference flow cell and buffer-only injection were double-subtracted from rhCD6-Fcflow cell during each antigen injection cycle. The data of dissociation (kd) and association (ka) rate constants were obtained by fitting binding data to 1:1 binding model using Biacore T200 evaluation software. The apparent equilibrium dissociation constants (KD) were calculated from the ratio of kd over ka.
(§2) Affinity analysis of antigen-antibody interaction. Binding data of each antibody was processed and fitted to 1:1 binding model using Biacore T200 evaluation software. All experiment data could be perfectly fitted to the model (FIG. 14).

Assay [2] deals with T2, CD6 on Jurkat cells (human, UniProt P30203 18-668).
T2 construct: whole, on cells; the target is inferred from the antibodies' specificity
T2 sequence (looked up): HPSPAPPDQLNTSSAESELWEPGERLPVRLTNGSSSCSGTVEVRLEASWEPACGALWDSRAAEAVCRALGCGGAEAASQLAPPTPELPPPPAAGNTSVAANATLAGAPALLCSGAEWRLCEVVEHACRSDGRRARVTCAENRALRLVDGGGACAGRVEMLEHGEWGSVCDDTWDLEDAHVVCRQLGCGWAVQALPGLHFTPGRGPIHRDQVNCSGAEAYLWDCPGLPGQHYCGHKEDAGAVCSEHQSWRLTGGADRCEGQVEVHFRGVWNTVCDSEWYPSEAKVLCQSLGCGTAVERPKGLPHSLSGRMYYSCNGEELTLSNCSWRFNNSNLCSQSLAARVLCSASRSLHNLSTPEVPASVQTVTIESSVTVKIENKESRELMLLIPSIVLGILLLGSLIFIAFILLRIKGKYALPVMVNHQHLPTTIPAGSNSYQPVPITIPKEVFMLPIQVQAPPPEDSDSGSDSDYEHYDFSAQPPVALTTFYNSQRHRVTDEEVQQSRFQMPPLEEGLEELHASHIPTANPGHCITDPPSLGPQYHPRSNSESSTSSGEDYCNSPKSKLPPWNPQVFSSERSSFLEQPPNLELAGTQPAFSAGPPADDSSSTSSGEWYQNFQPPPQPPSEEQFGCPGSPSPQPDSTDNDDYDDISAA
The assay can be described thus: flow cytometry on Jurkat cells, antibody at 0 pM (background). How it is done:
(§3) Flow cytometric analysis was performed using the purified antibodies. Jurkat cells were grown to 70-80% confluence and harvested by centrifuge. About 4×10⁵ cells per well were washed with PBS twice. 200 μl of the culture supernatant was added to the cells and incubated at room temperature for 1 hour. After washing with PBS, antibody was added to the cells for the detection of bound humanized IgG. After 30 minutes incubation, the cells were washed twice with PBS and resuspended in PBS. Cells were analyzed for IgG binding by using FACS Calibur (BD Bioscience, San Jose, Calif.) and Flowjo software. The IC₅₀ was analyzed by GraphPad Prism.
(§4) The FACS binding assay was also performed for validation of the Jurkat cell/humanized antibody interaction. Three humanized antibodies show almost equal Jurkat cell binding activity as parent antibody.
(Flow cytometry measures light scatter and fluorescence of single cells or particles in a stream.)

Assay [3] addresses T2, CD6 on Jurkat cells. As to the kind of experiment: flow cytometry on Jurkat cells, antibody at 3.2 pM. On the procedure:
as §3, §4

In assay [4] the target is T2, CD6 on Jurkat cells. As to the kind of experiment: flow cytometry titration of direct binding on Jurkat cells (the filing calls the midpoint IC50), GraphPad Prism. On the procedure:
as §3, §4

The target of assay [5] is T2, CD6 on Jurkat cells. As to the kind of experiment: flow cytometry on Jurkat cells, antibody at 10000 pM. How it is done:
as §3, §4

For assay [6], the target named is T2, CD6 on Jurkat cells. As to the kind of experiment: flow cytometry on Jurkat cells, antibody at 16 pM. On the procedure: as §3, §4
In assay [7] the target is T2, CD6 on Jurkat cells. The assay can be described thus: flow cytometry on Jurkat cells, antibody at 2000 pM. How it is done: as §3, §4
The target of assay [8] is T2, CD6 on Jurkat cells. The assay can be described thus: flow cytometry on Jurkat cells, antibody at 400 pM. How it is done: as §3, §4
Assay [9] addresses T2, CD6 on Jurkat cells. As to the kind of experiment: flow cytometry on Jurkat cells, antibody at 80 pM. How it is done: as §3, §4
Assay [10] addresses T1, rhCD6-Fc. As to the kind of experiment: SPR (BIAcore T200, 25 C), rhCD6-Fc immobilised on CM5, IgG injected, apparent KD = kd/ka. On the procedure: as §1, §2

B1: Humanized IgG4 (from Fab4) (antibody, V domains shown)
VH: QVQLQESGPGLVKPSETLSLTCTVSGFSISRYSVHWIRQPPGKGLEWIGLIWGGGFTDYNSALKSRVTISKDNSKNQVSLKLSSVTAADTAVYYCAREGVAYWGQGTLVTVSS
VL: DVVMTQSPLSLPVTLGQPASISCKSSQSLLNSDGRTYLNWFQQRPGQSPRRLIYLVSKLDSGVPDRFSGSGSGTDFTLKISRVEAEDVGVYYCWQGTHFPFTFGPGTKVDIKR
notes: VH4-hIgG1CH and VL-hIgKCL (human IgG1 / kappa; 'IgG4' is the clone number, not the isotype)
Turning to B1, the koff with rhCD6-Fc [1] is 1.3e-05 s⁻¹. For the same molecule, the kon with rhCD6-Fc [1] stood at 350000 M⁻¹ s⁻¹. For the same molecule, the MFI is 5.45 with CD6 on Jurkat cells [2]; 6.45 with CD6 on Jurkat cells [3]; 46.7 with CD6 on Jurkat cells [5]; 7.65 in the assay with CD6 on Jurkat cells [6]; 44.4 with CD6 on Jurkat cells [7]; 37 with CD6 on Jurkat cells [8]. In the assay with CD6 on Jurkat cells [9], this molecule yielded an MFI of 15. Besides, the EC50 in the assay with CD6 on Jurkat cells [4] amounted to 0.185 nM. In addition, the Kd in the assay with rhCD6-Fc [10] came out at 0.038 nM.

The term koff denotes the rate constant with which the complex falls apart. Lower therefore signals a long-lived complex. In general, kon refers to a measure of how fast the partners come together. A low value points to slower complex formation. For orientation: EC50 means the midpoint of the concentration-response curve. Read a high EC50 as weaker potency.
